# Tests used:
# [1] = system: Human Skin Fibroblasts; details: Silverberg et al. 2012; cited from earlier work
# [2] = system: catalase; assay: Catalase activity by decomposition rate of H2O2 (absorbance at 240 nm), pH 7.0; assay type: biochemical; details: free enzyme vs enzyme contained in film (FIG. 2, FIG. 3)
# Description: (§1) In the prolamin-based film for oral delivery containing catalase, the activity of catalase was measured by checking the decomposition rate of hydrogen peroxide (H2O2). The activity of catalase was measured by mixing catalase or the prolamin-based film for oral delivery containing catalase with 10 μM of H2O2 in a buffering solution of pH 7.0, and then monitoring the absorbance value of H2O2 at 240 nm. Further, in the prolamin-based film for oral delivery containing SOD, SOD activity was measured in accordance with the manufacturer's instructions by using SOD assay kit (SOD determination kit 19,160, Fluka, St. Louis, Mo.). Significance of results was determined via t-test between Zein film and other films containing SOD or catalase with p<0.05(*).
# The activities of catalases contained in the film for oral delivery as prepared in the Comparative Example 1-1 and Example 1-1 were compared. […] 1 mg of each formulation was taken to check the quantity of fluorescence which was then compared with the initially used quantity of fluorescence, resulting in the determination of the quantity of catalase in each formulation. The activity of catalase was evaluated at pH 7.0 as described in Example 2-1 by using fluorescent-unbound catalase, forming Zein Nanoparticle and Film, and taking 1 mg of each formulation. […]
# [3] = system: catalase; assay: Catalase activity in the stomach condition (HCl pH 1.3, with or without pepsin); assay type: biochemical; details: pH 1.3, 20 minutes, pepsin-treated or pepsin-untreated (FIG. 5, FIG. 6)
# Description: as §1
# The function of Zein in protecting an anti-oxidative protein in the stomach condition was evaluated. In order to mimic the stomach condition, catalase or the prolamin-based film for oral delivery containing catalase was added into hydrochloric acid solution (50.1 mM HCl, pH 1.3) and left for 20 minutes. […] The activities of catalase and SOD were measured in the same manner as Example 2-1. Significance of results was determined via t-test between free enzymes and other delivery vehicles with p<0.05(*).
# [4] = system: catalase; assay: Catalase activity in the small intestine condition (pH 7.4, with or without trypsin); assay type: biochemical; details: pH 7.4, 30 minutes
# Description: as §1
# In order to mimic the small intestine condition, test groups were divided into […] Trypsin-treated group and Trypsin-untreated group, respectively, while being left for 30 minutes in the environment of pH 7.4.
# The activities of catalase and SOD were measured in the same manner as Example 2-1. Significance of results was determined via t-test between free enzymes and other delivery vehicles with p<0.05(*).
Compound,protection of cells from reactive oxygens [1],relative activity of catalase [2],relative activity of catalase in the stomach condition [3],"relative activity of catalase in the small intestine condition, Trypsin-treated ([4]; Trypsin-treated group (FIG. 8, FIG. 9))","relative activity of catalase at pH 7.4, Trypsin-untreated ([4]; Trypsin-untreated group (FIG. 8))"
"Cn1c(=O)c2c(ncn2C)n(C)c1=O [Caffeine, caffeine]",able to protect cells from reactive oxygens,,,,
catalase,,approximately similar to those as contained in the Zein-based film,lost almost completely its activity,lost its activity significantly,maintained its activity
